From PMC7141386, “Extracellular CIRP induces macrophage endotoxin tolerance through IL-6R–mediated STAT3 activation” (JCI Insight, 2020)
Substitutions are numbered along the chain they refer to. Each block holds one binder with its values, some of them ahead of it.

How the values were obtained:
[1] = target: T1, recombinant human IL-6R alpha protein Leu20-Asp358 (human, UniProt P08887 20-358); assay: SPR; Biacore 3000; rhIL-6R immobilised on a CM5 chip (amine coupling, 10 mM sodium acetate pH 4.5); rhCIRP as analyte 0-1.0 uM; 1x PBS with 0.01% Tween-20, pH 7.4; 30 uL/min, 25°C; global fit to the Langmuir model for 1:1 binding; details: both partners purified
T1 construct: human IL-6 receptor alpha, Leu20-Asp358; no tags in the Biacore assay; also called rhIL-6R; IL-6 receptor; source: bought: R&D Systems, Bio-Techne; Spodoptera frugiperda Sf21, baculovirus-derived
T1 sequence (looked up): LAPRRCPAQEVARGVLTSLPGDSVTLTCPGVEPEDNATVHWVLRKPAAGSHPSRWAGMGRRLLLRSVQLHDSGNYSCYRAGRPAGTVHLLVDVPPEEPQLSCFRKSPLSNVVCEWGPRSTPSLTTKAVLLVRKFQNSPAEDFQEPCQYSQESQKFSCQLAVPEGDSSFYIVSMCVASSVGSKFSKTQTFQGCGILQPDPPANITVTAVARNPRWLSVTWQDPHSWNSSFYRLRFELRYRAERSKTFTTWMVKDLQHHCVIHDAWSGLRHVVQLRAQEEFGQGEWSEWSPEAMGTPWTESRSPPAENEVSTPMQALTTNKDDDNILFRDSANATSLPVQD

[2] = target: T2, mouse IL-6 receptor on peritoneal macrophages (mouse (endogenous in peritoneal …, UniProt P22272 20-460)); assay: FRET or BRET; peritoneal macrophages in a 96-well plate treated with rmCIRP for 10 minutes at 4°C, fixed with 4% paraformaldehyde, stained with anti-CIRP and anti-IL-6R or anti-CD11b antibodies and Cy3- and Cy5-labelled secondary antibodies; FRET units from cell-associated fluorescence (Biotek Synergy Neo2); details: one partner purified
T2 construct: IL-6 receptor alpha, mouse, endogenous on peritoneal macrophages, detected with goat anti-mouse IL-6R antibody; also called IL-6Rα; source: endogenous, on murine peritoneal macrophages
T2 sequence (looked up): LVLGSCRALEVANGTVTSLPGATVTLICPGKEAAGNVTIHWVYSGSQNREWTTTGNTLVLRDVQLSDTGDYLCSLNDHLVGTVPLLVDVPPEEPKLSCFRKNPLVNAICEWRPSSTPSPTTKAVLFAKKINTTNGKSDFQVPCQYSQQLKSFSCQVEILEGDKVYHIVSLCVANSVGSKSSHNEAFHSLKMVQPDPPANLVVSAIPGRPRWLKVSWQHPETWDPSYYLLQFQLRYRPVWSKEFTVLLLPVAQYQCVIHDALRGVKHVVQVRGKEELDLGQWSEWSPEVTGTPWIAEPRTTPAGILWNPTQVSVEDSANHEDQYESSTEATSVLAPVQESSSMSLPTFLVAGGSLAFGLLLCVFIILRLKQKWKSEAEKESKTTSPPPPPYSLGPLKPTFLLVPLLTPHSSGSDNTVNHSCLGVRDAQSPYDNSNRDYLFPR

Kd [1]: 98 nM
B1: recombinant human CIRP (cold-inducible RNA-binding protein) (natural protein, UniProt Q14011 1-172, looked up)
chain: MASDEGKLFVGGLSFDTNEQSLEQVFSKYGQISEVVVVKDRETQRSRGFGFVTFENIDDAKDAMMAMNGKSVDGRQIRVDQAGKSSDNRSRGYRGGSAGGRGFFRGGRGRGRGFSRGGGDRGYGGNRFESRSGGYGGSRDYYSSRSQSGGYSDRSSGGSYRDSYDSYATHNE
notes: also called rhCIRP; eCIRP; source: bought: Origene

fold increase in FRET units against the negative control CD11b [2]: 17 fold
B2: recombinant murine CIRP (cold-inducible RNA-binding protein) (natural protein, mouse, UniProt P60824 1-172, looked up)
chain: B1 chain with S21A, G109S, N126G, S143A, S148G, G150S, S152G, D153Y
notes: also called rmCIRP
